Source: article PMC2582960, “A Structural Model of the Staphylococcus aureus ClfA–Fibrinogen Interaction Opens New Avenues for the Design of Anti-Staphylococcal Therapeutics” (PLoS Pathogens, 2008)

B1: unnamed (parent)
chain 1: GEGQQHHLGGAKQAGDV
chain 2: GTDITNQLTNVTVGIDSGTTVYPHQAGYVKLNYGFSVPNSAVKGDTFKITVPKELNLNGVTSTAKVPPIMAGDQVLANGVIDSDGNVIYTFTDYVNTKDDVKATLTMPAYIDPENVKKTGNVTLATGIGSTTANKTVLVDYEKYGKFYNLSIKGTIDQIDKTNNTYRQTIYVNPSGDNVIAPVLTGNLKPNTDSNALIDQQNTSIKVYKVDNAADLSESYFVNPENFEDVTNSVNITFPNPNQYKVEFNTPDDQITTPYIVVVNGHIDPNSKGDLALRSTLYGYNSNIIWRSMSWDNEVAFNNGSGSGDGIDKPVVP

Variants of: B1
Experiment: solid-phase competition (inhibition) assay
Settings: with partner chain of the complex shown;; read off a plot

| Variant | response (Absorbance (405 nm)) |
| --- | --- |
| chain 1 AEGQQHHLGGAKQAGDV [chain 1 G1A] | 0.25 |
| chain 1 GEGQQHHLGGAKQAADV [chain 1 G15A] | 0.28 |
| chain 1 GAGQQHHLGGAKQAGDV [chain 1 E2A] | 0.21 |
| chain 1 GEGQQHHAGGAKQAGDV [chain 1 L8A] | 0.15 |
| chain 1 GEGQQHHLGGAAQAGDV [chain 1 K12A] | 0.23 |
| chain 1 GEGQAHHLGGAKQAGDV [chain 1 Q5A] | 0.23 |
| chain 1 GEGAQHHLGGAKQAGDV [chain 1 Q4A] | 0.2 |
| chain 1 GEGQQHHLGGAKQAGDA [chain 1 V17A] | 0.13 |
| chain 1 GEGQQHHLGGAKAAGDV [chain 1 Q13A] | 0.29 |
| chain 1 GEGQQHHLGGSKQAGDV [chain 1 A11S] | 0.11 |
| chain 1 GEGQQHALGGAKQAGDV [chain 1 H7A] | 0.28 |
| chain 1 GEGQQHHLGAAKQAGDV [chain 1 G10A] | 0.25 |
| chain 1 GEAQQHHLGGAKQAGDV [chain 1 G3A] | 0.2 |
| chain 1 GEGQQHHLGGAKQSGDV [chain 1 A14S] | 0.29 |
| chain 1 GEGQQAHLGGAKQAGDV [chain 1 H6A] | 0.31 |
| chain 1 GEGQQHHLAGAKQAGDV [chain 1 G9A] | 0.21 |
